Results published in patent US20230406951A1 (Pfizer, published 2023).

B1: TetraFab 2171 (antibody)
heavy: QVQLVQSGAEVKKPGASVKVSCKVSGFSFPSSGVDWVRQAPGQGLEWLGVTRGEGSTHYNQKFQGRVTITKDTSKSTVYMELSSLRSEDTAVYYCASGEWDEGFVYWGQGTLVTVSSASTKGPSVFPLAPSSKSTSGGTAALGCLVKDYFPEPVTVSWNSGALTSGVHTFPAVLQSSGLYSLSSVVTVPSSSLGTQTYICNVNHKPSNTKVDKKVEPKSCGGGGSQVQLVQSGAEVKKPGASVKVSCKVSGFSFPSSGVDWVRQAPGQGLEWLGVTRGEGSTHYNQKFQGRVTITKDTSKSTVYMELSSLRSEDTAVYYCASGEWDEGFVYWGQGTLVTVSSASTKGPSVFPLAPSSKSTSGGTAALGCLVKDYFPEPVTVSWNSGALTSGVHTFPAVLQSSGLYSLSSVVTVPSSSLGTQTYICNVNHKPSNTKVDKKVEPKSCDKTHTCPPCPAPEAAGAPSVFLFPPKPKDTLMISRTPEVTCVVVDVSHEDPEVKFNWYVDGVEVHNAKTKPREEQYNSTYRVVSVLTVLHQDWLNGKEYKCKVSNKALPAPIEKTISKAKGQPREPQVYTLPPSREEMTKNQVSLTCLVKGFYPSDIAVEWESNGQPENNYKTTPPVLDSDGSFFLYSKLTVDKSRWQQGNVFSCSVMHEALHNHYTQKSLSLSPGK
light: DIQLTQSPSFLSASVGDRVTITCKASQNVGTAVAWYQQKPGKAPKLLIYAASTLQSGVPSRFSGSGSGTEFTLTISSLQPEDFATYYCLQYSSYPLTFGGGTKVEIKRTVAAPSVFIFPPSDEQLKSGTASVVCLLNNFYPREAKVQWKVDNALQSGNSQESVTEQDSKDSTYSLSSTLTLSKADYEKHKVYACEVTHQGLSSPVTKSFNRGEC
notes: TetraFab
B2: TetraFab 2054 (antibody)
heavy: QVQLVQSGAEVKKPGASVKVSCKVSGFSFPSSGVDWVRQAPGQGLEWLGVTKGQGSTHYNQKFQGRVTITKDTSKSTVYMELSSLRSEDTAVYYCASGEWDEGFVYWGQGTLVTVSSASTKGPSVFPLAPSSKSTSGGTAALGCLVKDYFPEPVTVSWNSGALTSGVHTFPAVLQSSGLYSLSSVVTVPSSSLGTQTYICNVNHKPSNTKVDKKVEPKSCGGGGSQVQLVQSGAEVKKPGASVKVSCKVSGFSFPSSGVDWVRQAPGQGLEWLGVTKGQGSTHYNQKFQGRVTITKDTSKSTVYMELSSLRSEDTAVYYCASGEWDEGFVYWGQGTLVTVSSASTKGPSVFPLAPSSKSTSGGTAALGCLVKDYFPEPVTVSWNSGALTSGVHTFPAVLQSSGLYSLSSVVTVPSSSLGTQTYICNVNHKPSNTKVDKKVEPKSCDKTHTCPPCPAPEAAGAPSVFLFPPKPKDTLMISRTPEVTCVVVDVSHEDPEVKFNWYVDGVEVHNAKTKPREEQYNSTYRVVSVLTVLHQDWLNGKEYKCKVSNKALPAPIEKTISKAKGQPREPQVYTLPPSREEMTKNQVSLTCLVKGFYPSDIAVEWESNGQPENNYKTTPPVLDSDGSFFLYSKLTVDKSRWQQGNVFSCSVMHEALHNHYTQKSLSLSPGK
light: DIQLTQSPSFLSASVGDRVTITCKASQNVGTAVAWYQQKPGKAPKLLIYAASTLQSGVPSRFSGSGSGTEFTLTISSLQPEDFATYYCQQYSSYPLTFGGGTKVEIKRTVAAPSVFIFPPSDEQLKSGTASVVCLLNNFYPREAKVQWKVDNALQSGNSQESVTEQDSKDSTYSLSSTLTLSKADYEKHKVYACEVTHQGLSSPVTKSFNRGEC
notes: TetraFab
B3: TetraFab 2056 (antibody)
heavy: QVQLVQSGAEVKKPGASVKVSCKVSGFSFPSSGVDWVRQAPGQGLEWLGVTFQEGSTHYNQKFQGRVTITKDTSKSTVYMELSSLRSEDTAVYYCASGEWDEGFVYWGQGTLVTVSSASTKGPSVFPLAPSSKSTSGGTAALGCLVKDYFPEPVTVSWNSGALTSGVHTFPAVLQSSGLYSLSSVVTVPSSSLGTQTYICNVNHKPSNTKVDKKVEPKSCGGGGSQVQLVQSGAEVKKPGASVKVSCKVSGFSFPSSGVDWVRQAPGQGLEWLGVTFQEGSTHYNQKFQGRVTITKDTSKSTVYMELSSLRSEDTAVYYCASGEWDEGFVYWGQGTLVTVSSASTKGPSVFPLAPSSKSTSGGTAALGCLVKDYFPEPVTVSWNSGALTSGVHTFPAVLQSSGLYSLSSVVTVPSSSLGTQTYICNVNHKPSNTKVDKKVEPKSCDKTHTCPPCPAPEAAGAPSVFLFPPKPKDTLMISRTPEVTCVVVDVSHEDPEVKFNWYVDGVEVHNAKTKPREEQYNSTYRVVSVLTVLHQDWLNGKEYKCKVSNKALPAPIEKTISKAKGQPREPQVYTLPPSREEMTKNQVSLTCLVKGFYPSDIAVEWESNGQPENNYKTTPPVLDSDGSFFLYSKLTVDKSRWQQGNVFSCSVMHEALHNHYTQKSLSLSPGK
light: DIQLTQSPSFLSASVGDRVTITCKASQNVGTAVAWYQQKPGKAPKLLIYAASTLQSGVPSRFSGSGSGTEFTLTISSLQPEDFATYYCQQYSSYPLTFGGGTKVEIKRTVAAPSVFIFPPSDEQLKSGTASVVCLLNNFYPREAKVQWKVDNALQSGNSQESVTEQDSKDSTYSLSSTLTLSKADYEKHKVYACEVTHQGLSSPVTKSFNRGEC
notes: TetraFab
B4: TetraFab 2055 (antibody)
heavy: QVQLVQSGAEVKKPGASVKVSCKVSGFSFPSSGVDWVRQAPGQGLEWLGVTRGEGSTHYNQKFQGRVTITKDTSKSTVYMELSSLRSEDTAVYYCASGEWDEGFVYWGQGTLVTVSSASTKGPSVFPLAPSSKSTSGGTAALGCLVKDYFPEPVTVSWNSGALTSGVHTFPAVLQSSGLYSLSSVVTVPSSSLGTQTYICNVNHKPSNTKVDKKVEPKSCGGGGSQVQLVQSGAEVKKPGASVKVSCKVSGFSFPSSGVDWVRQAPGQGLEWLGVTRGEGSTHYNQKFQGRVTITKDTSKSTVYMELSSLRSEDTAVYYCASGEWDEGFVYWGQGTLVTVSSASTKGPSVFPLAPSSKSTSGGTAALGCLVKDYFPEPVTVSWNSGALTSGVHTFPAVLQSSGLYSLSSVVTVPSSSLGTQTYICNVNHKPSNTKVDKKVEPKSCDKTHTCPPCPAPEAAGAPSVFLFPPKPKDTLMISRTPEVTCVVVDVSHEDPEVKFNWYVDGVEVHNAKTKPREEQYNSTYRVVSVLTVLHQDWLNGKEYKCKVSNKALPAPIEKTISKAKGQPREPQVYTLPPSREEMTKNQVSLTCLVKGFYPSDIAVEWESNGQPENNYKTTPPVLDSDGSFFLYSKLTVDKSRWQQGNVFSCSVMHEALHNHYTQKSLSLSPGK
light: DIQLTQSPSFLSASVGDRVTITCKASQNVGTAVAWYQQKPGKAPKLLIYAASTLQSGVPSRFSGSGSGTEFTLTISSLQPEDFATYYCQQYSSYPLTFGGGTKVEIKRTVAAPSVFIFPPSDEQLKSGTASVVCLLNNFYPREAKVQWKVDNALQSGNSQESVTEQDSKDSTYSLSSTLTLSKADYEKHKVYACEVTHQGLSSPVTKSFNRGEC
notes: TetraFab
B5: IgG 2045 (antibody, name in Kabat numbering, V domains shown)
VH: QVQLVQSGAEVKKPGASVKVSCKVSGFSFPSSGVDWVRQAPGQGLEWLGVTLGHGSTHYNQKFQGRVTITKDTSKSTVYMELSSLRSEDTAVYYCASGESTEGFVYWGQGTLVTVSS
VL: DIQLTQSPSFLSASVGDRVTITCKASQNVGTAVAWYQQKPGKAPKLLIYAASTLQSGVPSRFSGSGSGTEFTLTISSLQPEDFATYYCLQYSSYPLTFGGGTKVEIKR
notes: IgG
B6: IgG 2047 (antibody, name in Kabat numbering, V domains shown)
VH: QVQLVQSGAEVKKPGASVKVSCKVSGFSFPSSGVDWVRQAPGQGLEWLGVTLGHGSTHYNQKFQGRVTITKDTSKSTVYMELSSLRSEDTAVYYCASGERDEGFVYWGQGTLVTVSS
VL: DIQLTQSPSFLSASVGDRVTITCKASQNVGTAVAWYQQKPGKAPKLLIYAASTLQSGVPSRFSGSGSGTEFTLTISSLQPEDFATYYCLQYSSYPLTFGGGTKVEIKR
notes: IgG
B7: IgG 2052 (antibody, name in Kabat numbering, V domains shown)
VH: QVQLVQSGAEVKKPGASVKVSCKVSGFSFPSSGVDWVRQAPGQGLEWLGVTHGSGSTHYNQKFQGRVTITKDTSKSTVYMELSSLRSEDTAVYYCASGEQDEGFVYWGQGTLVTVSS
VL: DIQLTQSPSFLSASVGDRVTITCKASQNVGTAVAWYQQKPGKAPKLLIYAASTLQSGVPSRFSGSGSGTEFTLTISSLQPEDFATYYCLQYSSYPLTFGGGTKVEIKR
notes: IgG
B8: IgG 2050 (antibody, name in Kabat numbering, V domains shown)
VH: QVQLVQSGAEVKKPGASVKVSCKVSGFSFPSSGVDWVRQAPGQGLEWLGVTHGSGSTHYNQKFQGRVTITKDTSKSTVYMELSSLRSEDTAVYYCASGEHDEGFVYWGQGTLVTVSS
VL: DIQLTQSPSFLSASVGDRVTITCKASQNVGTAVAWYQQKPGKAPKLLIYAASTLQSGVPSRFSGSGSGTEFTLTISSLQPEDFATYYCLQYSSYPLTFGGGTKVEIKR
notes: IgG
B9: IgG 2048 (antibody, name in Kabat numbering, V domains shown)
VH: QVQLVQSGAEVKKPGASVKVSCKVSGFSFPSSGVDWVRQAPGQGLEWLGVTLGHGSTHYNQKFQGRVTITKDTSKSTVYMELSSLRSEDTAVYYCASGEQDEGFVYWGQGTLVTVSS
VL: DIQLTQSPSFLSASVGDRVTITCKASQNVGTAVAWYQQKPGKAPKLLIYAASTLQSGVPSRFSGSGSGTEFTLTISSLQPEDFATYYCLQYSSYPLTFGGGTKVEIKR
notes: IgG
B10: IgG 2051 (antibody, name in Kabat numbering, V domains shown)
VH: QVQLVQSGAEVKKPGASVKVSCKVSGFSFPSSGVDWVRQAPGQGLEWLGVTHGSGSTHYNQKFQGRVTITKDTSKSTVYMELSSLRSEDTAVYYCASGERDEGFVYWGQGTLVTVSS
VL: DIQLTQSPSFLSASVGDRVTITCKASQNVGTAVAWYQQKPGKAPKLLIYAASTLQSGVPSRFSGSGSGTEFTLTISSLQPEDFATYYCLQYSSYPLTFGGGTKVEIKR
notes: IgG
B11: IgG 2046 (antibody, name in Kabat numbering, V domains shown)
VH: QVQLVQSGAEVKKPGASVKVSCKVSGFSFPSSGVDWVRQAPGQGLEWLGVTLGHGSTHYNQKFQGRVTITKDTSKSTVYMELSSLRSEDTAVYYCASGEHDEGFVYWGQGTLVTVSS
VL: DIQLTQSPSFLSASVGDRVTITCKASQNVGTAVAWYQQKPGKAPKLLIYAASTLQSGVPSRFSGSGSGTEFTLTISSLQPEDFATYYCLQYSSYPLTFGGGTKVEIKR
notes: IgG

What follows are binders tested against T1, human TNFR2 (human, UniProt P20333 23-461) (assay: binding to human TNFR2 CHO cells).
T1 construct: expressed on the surface of CHO cells; also called HuTNFR2; TNFRSF1B
T1 sequence: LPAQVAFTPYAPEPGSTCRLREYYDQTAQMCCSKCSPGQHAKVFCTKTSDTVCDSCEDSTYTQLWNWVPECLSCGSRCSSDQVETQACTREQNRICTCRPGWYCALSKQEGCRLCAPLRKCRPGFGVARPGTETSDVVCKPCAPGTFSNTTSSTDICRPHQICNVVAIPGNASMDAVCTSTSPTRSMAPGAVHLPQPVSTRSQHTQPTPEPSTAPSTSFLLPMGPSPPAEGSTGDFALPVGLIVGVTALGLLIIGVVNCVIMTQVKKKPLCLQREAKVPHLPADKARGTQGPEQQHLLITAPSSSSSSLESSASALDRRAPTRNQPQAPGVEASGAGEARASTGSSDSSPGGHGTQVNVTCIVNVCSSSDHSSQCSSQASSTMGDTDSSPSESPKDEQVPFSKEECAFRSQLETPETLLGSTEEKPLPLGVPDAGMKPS
B1: no binding. B2: no binding. B3: no binding. B4: no binding. B5: no binding. B6: no binding. B7: no binding. B8: no binding. B9: no binding. B10: no binding. B11: no binding.
